We go through five molecules from patent US8580258 (DEUTSCHES KREBSFORSCHUNGSZENTRUM STIFTUNG DES OFFENTLICHEN …, dated 2013).

In one experiment the target is streptavidin (UniProt P22629 37-163, limits assumed). As to the kind of experiment: ELISA, plate coated with streptavidin at 5 µg/ml, bacterial supernatants of 8 clones, anti-human kappa HRP conjugate, TMB. Here is the method: Three rows of a 96 well plate were coated with 100 μl L1 antigen comprising the extracellolar domain of the L1 protein fused to an Fc fragment (5 μg/ml) in PBS for 1 hr at room temperature. A further three rows were coated with streptavidin (5 μg/ml) in PBS as a control.
Chain of streptavidin (P22629 37-163 limits assumed): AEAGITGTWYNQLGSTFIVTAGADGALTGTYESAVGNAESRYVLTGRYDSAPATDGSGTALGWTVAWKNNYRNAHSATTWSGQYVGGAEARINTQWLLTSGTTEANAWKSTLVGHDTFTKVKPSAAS
The 96 well plate was washed four times with PBS 0.1% tween followed by the addition of 100 μl of anti-human kappa light chains bound and free antibody HRP conjugate (Sigma A7164) 1:5000 dilution in PBS 1% BSA. The conjugate was incubated for 1 hr at room temperature followed by five washes with PBS 0.1% tween.
The ELISA was developed by the addition of TMB 2-Component Microwell Peroxidase Substrate Kit (Kirkegaard and Perry Laboratories Inc., USA) according to the manufacturer's protocol. At least four L1 binding clones have been observed for each of three single chain antibody versions.

The target in experiment [1] is T1, recombinant L1-Fc fusion protein (human L1-Fc protein comprising the ectodomain of L1) (human, UniProt P32004 20-1120).
T1 construct: extracellular domain; also called L-Fc; L1 antigen; not shown: Fc fragment
T1 sequence (P32004 20-1120): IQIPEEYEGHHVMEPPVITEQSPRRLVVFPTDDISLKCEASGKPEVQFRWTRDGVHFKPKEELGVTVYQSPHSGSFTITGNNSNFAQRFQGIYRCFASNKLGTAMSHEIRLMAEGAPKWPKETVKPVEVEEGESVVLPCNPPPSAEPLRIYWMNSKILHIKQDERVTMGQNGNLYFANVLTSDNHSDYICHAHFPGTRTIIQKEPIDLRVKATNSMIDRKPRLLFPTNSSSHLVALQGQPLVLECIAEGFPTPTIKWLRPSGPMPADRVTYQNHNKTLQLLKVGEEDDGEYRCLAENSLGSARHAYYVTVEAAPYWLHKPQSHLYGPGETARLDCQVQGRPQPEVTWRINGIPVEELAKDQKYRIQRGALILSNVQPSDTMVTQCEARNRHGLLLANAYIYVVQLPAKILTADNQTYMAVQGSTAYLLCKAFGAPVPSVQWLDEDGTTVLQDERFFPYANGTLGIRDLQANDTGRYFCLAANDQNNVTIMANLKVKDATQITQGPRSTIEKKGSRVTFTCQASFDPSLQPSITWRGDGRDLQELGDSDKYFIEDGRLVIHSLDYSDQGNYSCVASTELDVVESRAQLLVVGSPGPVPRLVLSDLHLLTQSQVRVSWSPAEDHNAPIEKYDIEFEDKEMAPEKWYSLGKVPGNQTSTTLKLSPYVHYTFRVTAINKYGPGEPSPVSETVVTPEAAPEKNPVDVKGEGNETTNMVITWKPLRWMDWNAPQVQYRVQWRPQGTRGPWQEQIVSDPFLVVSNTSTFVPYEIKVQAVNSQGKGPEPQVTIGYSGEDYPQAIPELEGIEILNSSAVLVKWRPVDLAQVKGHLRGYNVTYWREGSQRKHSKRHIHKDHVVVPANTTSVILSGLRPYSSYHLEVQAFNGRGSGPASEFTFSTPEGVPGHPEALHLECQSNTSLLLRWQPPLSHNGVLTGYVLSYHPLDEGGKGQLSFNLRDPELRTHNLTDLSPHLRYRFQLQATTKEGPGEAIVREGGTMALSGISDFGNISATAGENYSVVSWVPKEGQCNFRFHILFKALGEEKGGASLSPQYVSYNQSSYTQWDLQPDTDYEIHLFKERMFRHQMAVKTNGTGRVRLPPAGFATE
As to the kind of experiment: Biacore SPR, L1-Fc coupled to CM5 chip, antibody as analyte 6-3333 nM. (In SPR one partner is held on a chip, and binding of the other changes the refractive index at the surface.)

For experiment [2], the target named is T1, recombinant L1-Fc fusion protein (human …). As to the kind of experiment: Biacore SPR, L1-Fc on CM5 chip.

Positions count from the first letter of the chain named.

B1: L1-9.3Hu single chain antibody (humanized L1-9.3Hu scFv fused to human c kappa constant region) (scFv)
scFv: DIQMTQSPSSLSASVGDRVTITCRASQDISNYLNWYQQKPGKAPKLLIYYTSRLHSGVPSRFSGSGSGTDYTFTISSLQPEDFATYFCQQGNTLPWTFGGGTKLEIKRTSGPGDGGKGGPGKGPGGEGTKGTGPGGEVQLVQSGGGLVQSGGSLRLSCRASGYTFTRYWMLWVRQRPGHGLEWVGEINPRNDRTNYNEKFKTRFTISVDRSKSTAYLQMDSLRAEDTAVYFCALGGGYAMDYWGQGTLVTVSSGGAAAAPSVFIFPPSDEQLKSGTASVVCLLNNFYPREAKVQWKVDNALQSGNSQESVTEQDSKDSTYSLSSTLTLSKADYEKHKVYACEVTHQGLSSPVTKSFNRGESHHHHHH
notes: The expressed portion may include the pelB leader
Take B1: the binding result with streptavidin is “no binding”.

B2: L1-9.3Hu3 single chain antibody (humanized L1-9.3Hu3 scFv fused to human c kappa constant region) (scFv)
scFv: B1 scFv with F73L, H179K, G185A, S213N, A215L
notes: The expressed portion may include the pelB leader; also called L1-9Hu3
On to B2, for which, in the experiment with streptavidin, the binding result is “no binding”.

B3: humanised antibody L1-hu3 (antibody, V domains shown)
VH: EVQLVQSGGGLVQSGGSLRLSCRASGYTFTRYWMLWVRQRPGKGLEWVAEINPRNDRTNYNEKFKTRFTISVDRSKNTLYLQMDSLRAEDTAVYFCALGGGYAMDYWGQGTLVTVSS
VL: DIQMTQSPSSLSASVGDRVTITCRASQDISNYLNWYQQKPGKAPKLLIYYTSRLHSGVPSRFSGSGSGTDYTLTISSLQPEDFATYFCQQGNTLPWTFGGGTKLEIK
Broadly, the Kd is the concentration at which binding is half-saturated. Usually koff stands for a measure of how fast the partners let go of each other. By kon is commonly meant the second-order rate constant of association. B3: in experiment [1], the Kd amounted to 0.081 nM, the koff is 6.5e-05 s⁻¹ and the association rate constant (kon) stood at 800000 M⁻¹ s⁻¹.

B4: monoclonal antibody L1-9.3, produced by the hybridoma cell deposited under DSMZ ACC2841 (antibody, V domains shown)
VH: QVQLQQPGAELVKSGASVNLSCRASGYTFTRYWMLWVRQRPGHGLEWVGEINPRNDRTNYNEKFKTKATLTVDRSSSTAYMQLTSLTSEDSAVYFCALGGGYAMDYWGQGTSVTVSS
VL: DIQMTQTTSSLSAFLGDRVTISCRASQDISNYLNWYQQKPDGTVKLLIYYTSRLHSGVPSRFSGSGSGTDYSLTISNLEQEDFATYFCQQGNTLPWTFGGGTKLEIK
As for B4, in experiment [2], the Kd came out at 0.085 nM, the dissociation rate constant (koff) is 2.2e-05 s⁻¹ and the kon is 260000 M⁻¹ s⁻¹. Moreover, in experiment [1], the dissociation constant (Kd) was 0.085 nM, the dissociation rate constant (koff) was 2.2e-05 s⁻¹ and the on-rate (kon) stood at 260000 M⁻¹ s⁻¹.

B5: L1-9.3 single chain antibody (murine L1-9.3 scFv fused to human c kappa constant region) (scFv)
scFv: DIQMTQTTSSLSAFLGDRVTISCRASQDISNYLNWYQQKPDGTVKLLIYYTSRLHSGVPSRFSGSGSGTDYSLTISNLEQEDFATYFCQQGNTLPWTFGGGTKLEIKRTSGPGDGGKGGPGKGPGGEGTKGTGPGGQVQLQQPGAELVKSGASVNLSCRASGYTFTRYWMLWVRQRPGHGLEWVGEINPRNDRTNYNEKFKTKATLTVDRSSSTAYMQLTSLTSEDSAVYFCALGGGYAMDYWGQGTSVTVSSGGAAAAPSVFIFPPSDEQLKSGTASVVCLLNNFYPREAKVQWKVDNALQSGNSQESVTEQDSKDSTYSLSSTLTLSKADYEKHKVYACEVTHQGLSSPVTKSFNRGESHHHHHH
notes: The expressed portion may include the pelB leader, which is cleaved off
In the case of B5, in the experiment with streptavidin, the binding result is reported as “no binding”.
